The source of these data is paper PMC2787699.

Substrate in the data set: O=C(O)[C@@H](O)[C@H](O)[C@H](O)[C@@H](O)C(=O)O
The data set can be described thus: purified protein. The data set is classed as biochemical, Oceanobacillus iheyensis. The conditions noted are these: 50 mM Hepes pH 8.0, 5 mM MgCl2.

B1: Ob2843; galactarate dehydratase GalrD-II (Oceanobacillus iheyensis HTE831) (protein)
chain: MKITDLELHAVGIPRHTGFVNKHVIVKIHTDEGLTGIGEMSDFSHLPLYSVDLHDLKQGLLSILLGQNPFDLMKINKELTDNFPETMYYYEKGSFIRNGIDNALHDLCAKYLDISVSDFLGGRVKEKIKVCYPIFRHRFSEEVESNLDVVRQKLEQGFDVFRLYVGKNLDADEEFLSRVKEEFGSRVRIKSYDFSHLLNWKDAHRAIKRLTKYDLGLEMIESPAPRNDFDGLYQLRLKTDYPISEHVWSFKQQQEMIKKDAIDIFNISPVFIGGLTSAKKAAYAAEVASKDVVLGTTQELSVGTAAMAHLGCSLTNINHTSDPTGPELYVGDVVKNRVTYKDGYLYAPDRSVKGLGIELDESLLAKYQVPDLSWDNVTVHQLQDRTADTKS
B1: the Km was 620 ± 380 µM, the kcat stood at 6.8 ± 1.2 s⁻¹ and the kcat/Km was determined as 11000 M⁻¹ s⁻¹.

B2: Ob2843; galactarate dehydratase GalrD-II (Oceanobacillus iheyensis HTE831; Y90F) (protein)
chain: MKITDLELHAVGIPRHTGFVNKHVIVKIHTDEGLTGIGEMSDFSHLPLYSVDLHDLKQGLLSILLGQNPFDLMKINKELTDNFPETMYYFEKGSFIRNGIDNALHDLCAKYLDISVSDFLGGRVKEKIKVCYPIFRHRFSEEVESNLDVVRQKLEQGFDVFRLYVGKNLDADEEFLSRVKEEFGSRVRIKSYDFSHLLNWKDAHRAIKRLTKYDLGLEMIESPAPRNDFDGLYQLRLKTDYPISEHVWSFKQQQEMIKKDAIDIFNISPVFIGGLTSAKKAAYAAEVASKDVVLGTTQELSVGTAAMAHLGCSLTNINHTSDPTGPELYVGDVVKNRVTYKDGYLYAPDRSVKGLGIELDESLLAKYQVPDLSWDNVTVHQLQDRTADTKS
Regarding B2, the Km worked out at 2000 ± 480 µM, the kcat amounted to 0.0061 ± 0.006 s⁻¹ and the kcat/Km is 3.1 M⁻¹ s⁻¹.
